Measurements reported in US20250188193A1.

Legend:
[1] = target: Rituximab G2 (galactosylated afucosylated glycoform); assay: SPR (Biacore T200), 1:1 Langmuir kinetic fit
[2] = target: Rituximab G2F (galactosylated fucosylated glycoform); assay: SPR (Biacore T200), 1:1 Langmuir kinetic fit
[3] = target: Rituximab G2 (galactosylated afucosylated glycoform); assay: SPR, 1:1 Langmuir global fit, 1024 to 32 nM
[4] = target: Rituximab G2 (galactosylated afucosylated glycoform); assay: SPR; drawn table, KD (G2)

Row | Binder | Kd [1] [nM] | Kd [2] [nM] | Kd [3] [nM] | Kd [4] [nM]
1 | D3 (VHH, not shown: small tags and cut ends) VHH: QVQLQESGGGLVQAGGSLRLSCAASGNISADRYMGWYRQAPGKEREFVAAIGYGGTTYYADSVKGRFTISRDNAKNTVYLQMNSLKPEDTAVYYCAVVDGAHSRHRYWGQGTQVTVSS | 323 | 1900 | 353 | 
2 | E2 (VHH) VHH: QVQLQESGGGLVQAGGSLRLSCAASSYISRYHTMGWYRQAPGKERSFVAGITWGGLTYYADSVKGRFTVSRDNAKNTVYLQMNSLKPEDTAVYYCAVDGGTRADPYHYYWGQGTQVTVSS |  |  |  | 4740
3 | E4 (VHH) VHH: QVQLQESGGGLVQAGGSLRLSCAASPYISRYHTMGWYRQAPGKEREFVAAITWGGSTYYADSVKGRFTISRDNAKNTVYLQMNSLKPEDTAVYYCAVDGGTYADPYHYYWGQGTQVTVSS |  |  |  | 2480
